The chains are these.
B1: RAM2 Fab-ΔpIII (Fab, V domains shown)
VH: QVQLQESGGGLVKPGGSLKLSCAASGFTFSSYGMSWVRQTPDKRLEWVATISSGGSYTYYPDSVKGRFTISRDNAKNTLYLQMSSLKSEDTAMYYCARLYYGYRYYFDYWGQGTMVTVSS
VL: DIQLTQSPSSLSASIGDRVTITCQASQDITNSLNWYQQRPGQAPKLLIYDAFTLKTGVPSRFSGRGSGTSFTIAINSFQAEDIGTYFCQQSHRVPFTFGGGTRVEIKR
notes: Human Fab made in E. coli from pFAB73H; VH is joined to human gamma 1 CH1 (residues 118 to 230), then a spacer with a trypsin site and truncated f1 phage pIII (ΔpIII); The light chain is VK plus human kappa constant domain; also called Fab-ΔpIII RAM2; RAM2 in the Fab-ΔpIII format
B6: recombinant MSP-3194-257 (other)
chain: HERAKNAYQKANQAVLKAKEASSYDYILGWEFGGGVPEHKKEENMLSHLYVSSKDKENISKENE
notes: also called panning antigen

The test “recombinant MSP-3194-257” deals with B6. Nature of the test: direct ELISA, coated recombinant antigen. In general terms: An ELISA detects its analyte on a solid surface through an enzyme-linked reagent.
For test [1], the target named is T1, native MSP-3 antigen of Plasmodium falciparum clone 3D7 schizonts and merozoites (Plasmodium falciparum).
T1 construct: whole, on cells; The motif 220-230 is also present in MSP-6; also called native malaria antigen; parasite proteins
Description: flow cytometry on ethanol-fixed permeabilized schizonts, FITC anti-human Fab. A general note: A flow cytometer gives signals particle by particle.
Description: The gating was placed to include the majority of the infected cells. The gating was used for the histograms described below.
Parasites were then washed in PBS with 1% BSA, incubated over night with antibody (Fab-ΔpIII or IgG1), washed twice with PBS supplemented with 1% BSA and incubated for 30 minutes with FITC-conjugated goat anti-human Fab (Sigma F5512) diluted 1:25. Cells were analyzed in a Coulter EPICS-2 flow cytometer. Hib-CP specific antibody was used as control in corresponding concentrations.

In test [2] the target is T2, synthetic peptide MSP-3211-237 (Plasmodium falciparum).
T2 construct: also called MSP-3b
T2 peptide: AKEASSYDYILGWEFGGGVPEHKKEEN
Description: ELISA on synthetic peptides.

For test [3], the target named is T3, synthetic peptide MSP-3190-217 (Plasmodium falciparum).
T3 peptide: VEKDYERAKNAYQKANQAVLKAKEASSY
Description: ELISA on synthetic peptides.

In the test “RAM2 Fab-ΔpIII” the target is B1. Nature of the test: antigen competition ELISA; soluble antigen 4 nM to 1250 nM against coated MSP-3194-257.

As to B1, in the test with recombinant MSP-3194-257, the binding result is “binds”. For the same molecule, the “percent of events under the bar M1” value in test [1] was found to be 28%.

B2: RAM2 IgG1 (antibody, V domains shown)
VH: QVQLQESGGGLVKPGGSLKLSCAASGFTFSSYGMSWVRQTPDKRLEWVATISSGGSYTYYPDSVKGRFTISRDNAKNTLYLQMSSLKSEDTAMYYCARLYYGYRYYFDYWGQGTMVTVSS
VL: DIQLTQSPSSLSASIGDRVTITCQASQDITNSLNWYQQRPGQAPKLLIYDAFTLKTGVPSRFSGRGSGTSFTIAINSFQAEDIGTYFCQQSHRVPFTFGGGTRVEIKR
notes: Intact human IgG1 kappa, allotype G1m(a,z), made in CHO cells
For B2, the binding result in test [2] and in test [3] was “binds” throughout.

B3: RAM1 Fab-ΔpIII (Fab, V domains shown)
VH: QVQLVQSGGGVVQPGRSLRLSCAASGFTFSSYAMHWVRQAPGKGLEWVAVISYDGSNKYYADSVKGRFTISRDNSKNTLYLQMSSLRAEDTAVYYCVKGASSWSTGTLVTVSS
VL: DIVMMQSPATLSASVGDRVTITCRASQSISSWLAWYQQKPGKAPNLLIYKASSLESGVPSRFSGSGSGTEFTLTISSLQPDDFATYYCQQYKSFPYTFGQGTRLEIKR
notes: Human Fab made in E. coli from pFAB73H; VH is joined to human gamma 1 CH1 (residues 118 to 230 of the H chain), then a spacer with a trypsin cleavage site and truncated f1 phage protein pIII (ΔpIII); The light chain is VK plus human kappa constant domain; also called Fab-ΔpIII RAM1; RAM1 in the Fab-ΔpIII format
Take B3: the “percent of events under the bar M1” value in test [1] was determined as 76%.

B4: RAM1 IgG1 (antibody, V domains shown)
VH: QVQLVQSGGGVVQPGRSLRLSCAASGFTFSSYAMHWVRQAPGKGLEWVAVISYDGSNKYYADSVKGRFTISRDNSKNTLYLQMSSLRAEDTAVYYCVKGASSWSTGTLVTVSS
VL: DIVMMQSPATLSASVGDRVTITCRASQSISSWLAWYQQKPGKAPNLLIYKASSLESGVPSRFSGSGSGTEFTLTISSLQPDDFATYYCQQYKSFPYTFGQGTRLEIKR
notes: Intact human IgG1 kappa, allotype G1m(a,z), made in CHO cells from pLNOH2 and pLNOK; also called IgG1 anti-MSP3; RAM1 in the IgG1 format
As to B4, the “percent of events under the bar M1” value in test [1] was determined as 47%.

B5: RAM3 Fab-ΔpIII (Fab, V domains shown)
VH: QVQLVQSGGGVVQPGRSLRLSCAASGFTFSSYAMHWVRQAPGKGLEWVAVISYDGSNKYYADSVKGRFTISRDNSKNTLYLQMNSLRAEDKAVYYCARDSGGIAARLGGYFDLWGRGTTVTVSS
VL: DIRMTQSPSFLSASVGDRVTITCRASQGISSYLAWYQQKPGKAPKLLIYAASTLQSGVPSRFSGSGSGTEFTLTISSLQPEDFATYYCQQGPTFGGGTKVEIKR
notes: Human Fab made in E. coli from pFAB73H; VH is joined to human gamma 1 CH1 (residues 118 to 230), then a spacer with a trypsin site and truncated f1 phage pIII (ΔpIII); The light chain is VK plus human kappa constant domain; also called Fab-ΔpIII RAM3; RAM3 in the Fab-ΔpIII format
With B5, the “percent of events under the bar M1” value in test [1] was 4%.
B6: the binding result with RAM2 Fab-ΔpIII is “binds”.

Source of the values: patent US7811569 (INSTITUT PASTEUR, dated 2010).
